Experimental data reported in patent publication US20230192820A1 (published 2023).

Target: Wild type
Test: ELISA

B1: Mab362 (antibody, V domains shown)
VH: QVQLVESGGGVVQPGRSLRLSCAASGFSFSSYGMHWVRQAPGKGLEWVAVIWYDGSDKYYADSVKGRFTISRDNSKNTLYLQLNSLRAEDTAIYYCARERYFDWIFDFWGQGTLVTVSS
VL: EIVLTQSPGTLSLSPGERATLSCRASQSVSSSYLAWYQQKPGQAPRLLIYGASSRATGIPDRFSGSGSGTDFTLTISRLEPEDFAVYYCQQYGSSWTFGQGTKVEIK
For B1, the EC50 was 0.64 µg/mL.
